We go through 9 molecules from patent US20110052606A1 (Novo Nordisk, published 2011).

Positions count from the first letter of the chain named. Names may count otherwise.

The target of experiment [1] is T1, scCD94/NKG2A-mFc, Fc-fusion protein of murine IgG1 fused at the C-terminus with a single-chain construct of … (mouse; human, UniProt Q13241 32-179). Kind of experiment: SPR Biacore T100, sc-NKG2A-CD94-mFc immobilized, antibody 1.25-10 nM. (In general: In SPR one partner is held on a chip, and binding of the other changes the refractive index at the surface.)
T1 sequence (Q13241 other isoform, or with tags, fused parts or gaps): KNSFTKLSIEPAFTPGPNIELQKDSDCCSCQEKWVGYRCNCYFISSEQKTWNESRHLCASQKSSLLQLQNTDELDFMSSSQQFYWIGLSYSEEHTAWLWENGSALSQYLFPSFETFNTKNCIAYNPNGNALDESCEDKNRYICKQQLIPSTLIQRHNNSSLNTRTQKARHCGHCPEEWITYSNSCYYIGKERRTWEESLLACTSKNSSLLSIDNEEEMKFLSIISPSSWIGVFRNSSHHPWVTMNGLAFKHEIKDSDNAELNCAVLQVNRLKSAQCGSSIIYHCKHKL
The target in experiment [2] is T1, scCD94/NKG2A-mFc, Fc-fusion protein of …. The experiment in a line: SPR Biacore T100, sc-NKG2A-CD94-mFc immobilized, binding level (RU) divided by that of chimZ199.
The target of experiment [3] is T2, human CD94/NKG2A receptor on cells (Ba/F3 cells over-expressing CD94/NKG2A; NKL cells) (human, UniProt Q13241 1-179).
T2 construct: whole, on cells; also called Ba/F3-CD94/NKG2A
T2 sequence (chain, as listed by the source, chain 1 of 2): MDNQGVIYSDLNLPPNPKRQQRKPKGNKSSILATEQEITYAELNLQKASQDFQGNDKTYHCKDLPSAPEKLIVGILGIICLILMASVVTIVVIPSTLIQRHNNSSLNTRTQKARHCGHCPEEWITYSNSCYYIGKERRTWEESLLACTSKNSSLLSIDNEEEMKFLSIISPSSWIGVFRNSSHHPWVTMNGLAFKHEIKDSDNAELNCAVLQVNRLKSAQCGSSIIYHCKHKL
T2 sequence (Q13241 whole entry, chain 2 of 2): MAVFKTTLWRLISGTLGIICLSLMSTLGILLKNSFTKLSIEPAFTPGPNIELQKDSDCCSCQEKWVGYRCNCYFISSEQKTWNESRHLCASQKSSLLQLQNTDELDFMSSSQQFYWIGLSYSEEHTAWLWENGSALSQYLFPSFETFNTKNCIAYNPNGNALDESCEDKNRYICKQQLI
Kind of experiment: flow cytometry on Ba/F3-CD94/NKG2A cells. For orientation: A flow cytometer gives signals particle by particle.

In experiment [4] the target is T1, scCD94/NKG2A-mFc, Fc-fusion protein of …. Kind of experiment: SPR Biacore T100, sc-NKG2A-CD94-mFc immobilized.

B1: chimeric Z199 with a human IgG4(S241P) portion (antibody, V domains shown)
VH: EVQLVESGGGLVKPGGSLKLSCAASGFTFSSYAMSWVRQSPEKRLEWVAEISSGGSYTYYPDTVTGRFTISRDNAKNTLYLEISSLRSEDTAMYYCTRHGDYPRFFDVWGAGTTVTVSS
VL: QIVLTQSPALMSASPGEKVTMTCSASSSVSYIYWYQQKPRSSPKPWIYLTSNLASGVPARFSGSGSGTSYSLTISSMEAEDAATYYCQQWSGNPYTFGGGTKLEIKR
notes: also called chimZ199; ChimZ199
The term Kd denotes the equilibrium constant for the complex coming apart. The low end stands for higher affinity, the high end for lower affinity. By koff is commonly meant the first-order rate constant of dissociation. Read a low koff as slow dissociation. In general, kon refers to the rate constant with which the complex forms. In experiment [1], B1 yielded a Kd of 0.0243 nM, a koff of 4.17e-05 s⁻¹ and a kon of 1.72e+06 M⁻¹ s⁻¹.

B2: chimZ199 light-chain alanine mutant Y32A (antibody, human IgG4, name in Kabat numbering, V domains shown)
VH: B1 VH
VL: B1 VL with Y31A
notes: Ala-scan mutant made on chimZ199 (human IgG4 constant domains); also called LC: Y32A
In the case of B2, the “relative binding against chimZ199” value in experiment [2] was ~40%.

B3: chimZ199 light-chain alanine mutant L50A (antibody, human IgG4, name in Kabat numbering, V domains shown)
VH: B1 VH
VL: B1 VL with L49A
notes: Ala-scan mutant made on chimZ199 (human IgG4 constant domains); also called LC: L50A
B3: the “relative binding against chimZ199” value in experiment [2] is ~40%.

B4: chimZ199 heavy-chain alanine mutant Y56A (antibody, human IgG4, name in Kabat numbering, V domains shown)
VH: B1 VH with Y57A
VL: B1 VL
notes: Ala-scan mutant made on chimZ199 (human IgG4 constant domains); Kabat numbering; also called HC: Y56A
Turning to B4, the “relative binding against chimZ199” value in experiment [2] was ~40%.

B5: murine anti-NKG2A antibody Z199 (antibody, V domains shown)
VH: B1 VH
VL: B1 VL
notes: Mouse monoclonal antibody (Beckman Coulter IM2750) and its recombinant form recZ199 made in HEK293 cells; also called recZ199; Z199 (rec)
In the case of B5, in experiment [3], the binding result is recorded as “binds”.

B6: chimZ199 light-chain alanine mutant P95A (antibody, human IgG4, name in Kabat numbering, V domains shown)
VH: B1 VH
VL: B1 VL with P94A
notes: Ala-scan mutant made on chimZ199 (human IgG4 constant domains); also called LC: P95A
On to B6, for which the “relative binding against chimZ199” value in experiment [2] was ~40%.

B7: chimZ199 heavy-chain alanine mutant P99A (antibody, human IgG4, name in Kabat numbering, V domains shown)
VH: B1 VH with P103A
VL: B1 VL
notes: Ala-scan mutant made on chimZ199 (human IgG4 constant domains); Kabat numbering; also called HC: P99A
Turning to B7, the “relative binding against chimZ199” value in experiment [2] was ~40%.

B8: chimZ199 heavy-chain alanine mutant Y98A (antibody, human IgG4, name in Kabat numbering, V domains shown)
VH: B1 VH with Y102A
VL: B1 VL
notes: Ala-scan mutant made on chimZ199 (human IgG4 constant domains); Kabat numbering; also called HC: Y98A
For B8, in experiment [2], the “relative binding against chimZ199” value was ~40%.

B9: HumZ199 (LC: L46P) (antibody, name in Kabat numbering, V domains shown)
VH: EVQLVESGGGLVKPGGSLRLSCAASGFTFSSYAMSWVRQAPGKGLEWVSEISSGGSYTYYADSVKGRFTISRDNAKNSLYLQMNSLRAEDTAVYYCARHGDYPRFFDVWGQGTTVTVSS
VL: EIVLTQSPATLSLSPGERATLSCSASSSVSSYIYWYQQKPGQAPRPLIYLTSNLASGIPARFSGSGSGTDFTLTISSLEPEDFAVYYCQQWSGNPYTFGQGTKLEIK
notes: also called huZ199(LC:L46P); humZ199 with single back mutation L46P in the light chain
Turning to B9, in experiment [1], the Kd is 0.072 nM, the koff was determined as 0.000122 s⁻¹ and the on-rate constant (kon) was found to be 1.7e+06 M⁻¹ s⁻¹. The “fold difference of affinity against chimeric Z199” value in experiment [4] is 2.7 fold.
